Measured values as given in the DeepSol protein solubility set.

Experiment: soluble on expression in E. coli; label from the status in PepcDB or PDB records

Row | Sequence | soluble on expression in E. coli
1 | MNKDTVLNVTVMGREFRIHCPGEEREELLLAVSCLNRKMQEIKSAGKIAGTEQIAIAAAISMTHELLSIRSQRGFDMNEFKRRIELLECRVSDALTDQGIYKNS | not soluble
2 | MNKIFLTAAALVLGACGFHLKGADGISPPLTYRSWHIEGGQALQFPLETALYQASGRVDDAAGAQMTLRIDSVSQNKETYTVTRAAVINEYLLILTVEAQVLKRGEPVGKPMTVSVRRILDYADNEILGKQEEEETLWAEMRQDVAEQIVRRLTFLKAELEHHHHHH | soluble
3 | MNKIHLCTLAVLTSLSFSSLAKDCDANLLPSWKDSDSKTAIVNFVEQSTDSSKATFIPVSDRIAVFDNDGTLWSEKPIYFQIAFALDQIKALAKTHPEWKTQEPFKSVIENDLEKVFAGGKESLLQIMKVTHSGMTVEEYQQSVEQWLAAAKDKRFGKAYNDLTFKPMREMLTYLQENNFKTYIVSGGGVDFMRVWAPEAYNIPEEQIIGSALKYEYSFNDGQPKVMKLGELLTLDDKEVKVENIQYIIGKKPVLAVGNSDGDQAMMQWATSQPNSMAMIVHHTDEAREWKYDRQSDVGRLDKALDEANERDNWQLIDMKNDWCAVY | not soluble
4 | MNKLHKGWFTEFSPDDLEKMNGASDEEPTKVLKSDGQEMGGAWPGQAFSLQVKKVLFHEKSKYQDVLVFESTTYGNVLVLDGIVQATERDEFSYQEMLAHLPMFAHPDPKRVLIIGGGDGGILREVLKHESVEKVTMCEIDEMVIDVAKKFLPGMSCGFSHPKLDLFCGDGFEFLKNHKNEFDVIITDSSDPVGPAESLFGQSYYELLRDALKEDGILSSQGESVWLHLPLIAHLVAFNRKIFPAVTYAQSIVSTYPSGSMGYLICAKNANRDVTTPARTLTAEQIKALNLRFYNSEVHKAAFVLPQFVKNALE | soluble
5 | MNKQIDLPIADVQGSLDTRHIAIDRVGIKAIRHPVVVADKGGGSQHTVAQFNMYVNLPHNFKGTHMSRFVEILNSHEREISVESFEEILRSMVSRLESDSGHIEMAFPYFINKSAPVSGVKSLLDYEVTFIGEIKHGNQYSFTMKVIVPVTSLCPCSKKISDYGAHNQRSHVTISVRTNSFIWIEDIIRIAEEQASCELYGLLKRPDEKYVTERAYNNPKFVEDIVRDVAEVLNHDDRIDAYIVESENFESIHNHSAYALIERDKRIR | soluble
6 | MNKQPGQQPLRSLSLTSAAKSPEEVEPEQDSKKGEPRAKAAGFGGGGGGGKRLPEARSTPMVIPNQVAAMPVQMTGFVQLVANNILSAIAHTNSVMVVQCIKPLEIFTGFETPNRYVVHDMYCRPLLYCMERSNIFARQYEGNDRNFGMQIMDTHGAQVMTCFRGRPCCSTDDFLSTQFLDQQIGMMKKECCNPNFELVGSGCNQPLLIQSPGCAGCGGTQKFPVMTFNGVLVGEIVRLYPGFMQEMFTDADTYIVHFPMDMPPILKLLLVTSVFLIDFTYFEDRNQDQHRNGGMHSGMHSSF | not soluble
7 | MNKVAIAVAAVVAGSSALLNSAQAEMYIGGKVGMTTLDDACYLNSPCDDEAFGAGLHIGYDFTDFIGLEYGVDFLGDYKANFKSGASTVDTIDGNLTALTLAPKFNWHLNDSWNLFAKIGGAYMMSEDEKDFVATGSLGAEYSIDRNWSVRAEYQRYQDMSDDVWDDMDANFFGIGVNYKFAAAPVVAAVVTEEVVEPDPEPVLMSKVH | not soluble
8 | MNLEGLEMIAVLIVIVLFVKLLEQFGLIEAGLEDSVEDELEMATVRHRPEALELLEAQSKFTKKELQILYRGFKNECPSGVVNEETFKEIYSQFFPQGDSTTYAHFLFNAFDTDHNGAVSFEDFIKGLSILLRGTVQEKLNWAFNLYDINKDGYITKEEMLDIMKAIYDMMGKCTYPVLKEDAPRQHVETFFQKMDKNKDGVVTIDEFIESCQKDENIMRSMQLFENVI | soluble
9 | MNLFFEKTGATNVAEFSVSEIAGALKRVVEEKFGYVRVRGEISGYRGAHASGHAYFALKDDKARLEAVIWRGIMEKLKFPPEEGMEVIAVGKLTTYPGSSKYQIVIEALEPTGVGALMTLLENRKKKFAEEGLFDEEKKKPLPYMPKIIGVVTSPTGAVIRDIIHRISDRFPLHILVWPVRVQGETSGREVAAAVKGFNVLPLEGLIPKPDLLIVARGGGSLEDLWGFNDEVVVRAVYESSLPVISAVGHETDWTLIDYVADWRAPTPTAAAEKAVPVKIDLEVYVVSLGARLRTGLARYFDFHQQKLRAIIRALPTADQLFALPRRGFDEISSRLERALCVSCDKKRLYFHTLAIRFTPRLLNTEKAQHSAKEYTARLHRAFVHIVEKQRAQLEIAFRLLKSTSYQNILERGFVLALGQNNKPIKRLAQIPEKEQINLRFFDGEISVITQESFFNRSSKSKRIKSKQDDQGTLF | not soluble
10 | MNLGLCMADPDFGVYHHSSREESERLRYMARIMFTEAFGKIGIDQDADMNIIDVGCGLGFLTILCADYFKNSRITAIDTFSMGSLKDNSRERLIENLRLADVLDRVTVVEADITKPFNIEDKFDLAVSNLVFHNTGRQRFSVYRNVWNVLKCGSYFINADGFIRKNVASIFVDPFRADMSKISSMYEPEFAMEPKDQKRNAVWRYILVGLRSKCSDV | not soluble
11 | MNLGQTLVGIATWPARAGLAAADTGLNMAGAAVDMAKQALGDAGGASGSTSMANMLGIDDTIARANRLARLLDDDMPLGRAIAPNGPMDRMLRPGGVVDLLTQPGGLLDRLTAEGGAMQRALQPGGLADQLLAEDGLIERVLSEDGLADRLLAEGGLIDKITAKDGPLEQLADVADTLARLTPGMEALEPAIATLQDAVIALTMVVNPLSSIAERIPLPGRRPARRSSSRSVRSQRVVDSE | not soluble
12 | MNLQAREGAPLNRYYDPYFACDAVKLLPGEYFASGEDLVIVTVLGSCVSVCLRDPLNGIAGMNHFMLPERGLGGDPASPSARYGSHAMELLINRMLALGASRERLQAKVFGGGSVLRQISAAIGQRNVEFTLDYLATERIPLLASDVLEAFPRKIYFFPRNGRVLVKSLVELKNDTVLQRERDYRRRIDRNADGGPIDLF | not soluble
13 | MNLVALAQLILFVLRNLNLKPRKHKPEEIALAIAAYVMGVQITKLNIPPSTLYYYTRKLGVKRRKDVRPRCPSCNSDRVIKNGSSRGKSKYKCKVCGRTFYGTASHRMSREQRERILREYTNRMSLRGISKVEGRPLTTVYSSVKRAALKAYVDLSILQAQLKAFRSKFAVLDESWTYVRVRRGPRRQNLWIWNALIDGVPFFVTGDRDYNTFRLLWLSLPKCEVHYTDDYPIYQVLYHHVVGKKYTHTVESYNSFCRSHLARLARDTKAVNRSRAMIDYSLALLNVMYPQVFTDEKTPLNLAYLSGVQYIRDHLILEHHHHHH | soluble
14 | MNMAERAEATKSWSCEPLSGKTLEEIVQNAENAADLVAYIRKPEVDLDFRLKFIAEHEEFFNEQLSDRNSRIRTCHNLSDKGIRGDTVFVFVPGLAGNLEQFEPLLELVDSDQKAFLTLDLPGFGHSSEWSDYPMLKVVELIFVLVCDVLRKWSTAVPNNDNVNPFNGHKIVLVGHSMGCFLACHLYEQHMADTKAVQTLVLLTPPKAHIEQLSKDKHIIQWALYGVFKLPWLFDVYRNKFDQVKGLQSSGIKQYFYQQGDDVKLKYRKFWQFKNNISNKSRTIIGYLLGWETVDWVKFNGVLTQTDMKQKIIIFGAEKDPIAPIENLEFYKQTINKECLRKVIILPDCSHNLCFDRPELVCENFQREVIDNSKL | soluble
15 | MNMDFNLFMNDIVRQARQEITAAGYTELKTAEEVDEALTKKGTTLVMVNSVCGCAGGIARPAAYHSVHYDKRPDQLVTVFAGQDKEATARARDYFEGYPPSSPSFAILKDGKIMKMVERHEIEGHEPMAVVAKLQEAFEEYCEEV | not soluble
16 | MNMFNRKAKQEVTKKPEASNGSKNSKSTFVNSKSPNQKRREVKKSDSDTESSHKNTRRTKPVPVPAASSNSKGSNEKHKRKSVQQVVKKVVNHIPFSPSKQPKSTSTPPVSEGNRKRLAMADVSINQLESEMDSFVKKIEPNERRATQYIHSNSLSRSNEAVPPGNVKTSQQKADHHLIRTTRSLIGLDGETEAVYSKATKASPDKGKLTADSPSSRRTSKSLEENSSETTNDSISLADDEETREAYRKLFKDFAMSSQKMTLDDFKQEFSNLPGDPPSDLCTVFNHPVNNKKNRYSNIPCLDISRVQLKFKMPNKNSTDYIHANYIRSPFLKRGYILTQGPKKETRADFWRMIWQENTTAIVMLCQFLETNREKCAEYFPRNAHCCLQFDKFSVNYEDSTVNKSLVTTRLNLSYEGETRLITHWLWKEWPDWQVPESSEVMLKILRKIRARSTPPVIHCSAGVGRSGTLMAVEIALQSIHTHFTLPDIKQIVSHLRVTGRAASVQTLQQYMLIWKVLLDFGVAYKQITEELAEKFNSTYRRSLRSINGT | not soluble
17 | MNMSRHDEFGGSTNKGPVQEHDVIMRGRRLLDITGVKQVESFDNEEFLLETVMGFLAIRGQNLQMKNLDVDKGVVSIKGRIFDLVYLDDHQEKAKGFFSKLFK | not soluble
18 | MNNFTYEKLHNNLQYLKLNTIEELLDNCLEIAARDSKTTMEVLDYLFEQEKKHREAAAIERRMKSAGFPVKKMLEEFDFEFQSSINKKVIEDLATLRFVHNAENIVLLGPPGVGKSHLAIALGIEAVKAGISVHFTNTGNLIERLKIANREGILEKKIRDLMKFKVLIIDEIGYLPFDDEGAHCLFQLISRRYEKSSTILTSNKSYGEWGEIFKDHVIAAALLDRILHHCTTINIKGESYRLKERKKQGIKTGLIRHNSTEILENLEHHHHHH | soluble
19 | MNNGTVKWFNAEKGFGFIEQENGGDVFVHFSGIASDGYKTLEEGQKVTFEITEGQRGDQAVNVQTV | not soluble
20 | MNNHNCFLTPLQQKFMQILSDYERDPKSIQIHEESDQMDVVISYFKLLLAEKSRLLQYGQANFSVHLIDEEIGRLFMAPISMADIGILEECGREALRFTDLGAMFSDSDDSMHSDEDEVTLTESIRIPVETYPTYNFIGRIIGPRGTTAKQLEKDTGCRIMIRGNHSNKMYGNALHKTHGDGSQDAIDLPLRVIVETSGPRREATARITAALETVQVLLVPPPDGRDELKRRQLVELAIMNGTYRPSCSRIDHN | not soluble
21 | MNNHSNKHWHLQMYLPEGKKGVQIRSEDMLKEPQPVIGTGEWNNRQCQDFKELHIGTIILVREGKKAIALCEVTSGCYTDKELHEKYRHSNFRNVKVLDFIAEKDQPPPRLFSQGTLKSCGEWTHQWEYIDKLISLMDKNNPIEEYSQLKEYAQLLESKKNIILQGAPGTGKTYTTASIAVHMCNKNFTDYTDHSKVIEEYERLRDTGQIAFCTFHQSMDYEDFVEGLKPEVKSNNVEYNVENGIFKSICEQAKTKEEADIITCIDKYLQSIKGYENKKKIPTISGRSDLWVWWIEGNDTISTRSAISKSEKGEQYSLSPLNIEKVKLQAIGEAIENNWRQYAQAFINAVKKEYQLDKQISDKPYVLIIDEINRGNVSKIFGELITLLEADKRSGAGSDSNHCISLILPYSKENFSVPSNLYIIGTMNTTDRSTGTIDYAVRRRFAFVTLKSSDKVIKEYAEKQSVEDNVRDASLALFTQINGNLKNDKESFIAKHKAADFELEDLKVGHSYFMAKDIDMLKMKMRYEVVPLIKEYIKDGILRGMQGDESYFEKWMNAECFHQSEPTTNDN | not soluble
22 | MNNQLTEITVVRRQSAPRLEFEAAAIYEYPEHLRPFLSEAPALPGVYIFHSESDTLPLYIGKSVNIRSRVLSHLRTPDEATMLRQARRISWICTAGEMGALLLEARLIKEQQPLFNKRLRRNRQLCSLQLSEQKIEVVSARSVDFSHEPNLFGLFANRRAALQSLQNLADEQKLCYGLLGLEPVSRGRACFRFALKRCAGACCGQETPQAHFLRLQASLERLRVVCWPWKGAIALKESRPQMTQFHIINNWLWLGAVPSLDEAATLVRTPAGFDQDGYKILCKPLMSGQYEIIELHTDCRQS | not soluble
23 | MNNRSAVRILRLPAVIQKTGMARATIYDWLNPKSPRYDATFPKKRMLGVKSVGWIEAEIDEWLSQRCKLI | soluble
